Data on four molecules can be found in article PMC4666394, “Human HLTF mediates postreplication repair by its HIRAN domain-dependent replication fork remodelling”.

Data set [1] has as its target T1, HLTF HIRAN domain NN90,91AA (human, UniProt Q14527 56-168, N90A;N91A).
T1 sequence: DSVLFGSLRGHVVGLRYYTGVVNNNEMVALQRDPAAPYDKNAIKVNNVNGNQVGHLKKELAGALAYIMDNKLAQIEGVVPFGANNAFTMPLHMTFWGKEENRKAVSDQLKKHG
Description: EMSA; Competition: 20 mM HEPES pH 7.5, 150 mM NaCl, 1 mM DTT, 0.1 ug/mL BSA, 0.2% NP40, 10% glycerol, room temperature 15 min; 6% native PAGE 0.5x Tris-borate without EDTA at 4 C; direct gel shift as in cited earlier work. As to conditions: protein: recombinant, tags: FLAG or GST-FLAG, label: 5' 32P. Background: In EMSA bound probe runs differently from free probe, usually more slowly.

The target in data set [2] is T2, HLTF HIRAN domain WT (human, UniProt Q14527 56-168).
T2 sequence: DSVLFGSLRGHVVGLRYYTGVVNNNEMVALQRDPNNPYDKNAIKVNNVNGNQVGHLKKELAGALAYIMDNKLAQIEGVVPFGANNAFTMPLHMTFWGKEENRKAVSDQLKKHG
Described as above. The settings on record: protein: recombinant, tags: FLAG (GST-FLAG cleaved by PreScission) or GST-FLAG, label: 5' 32P.

A further data set has as its target T3, GST-FLAG-HIRAN (WT) (human, UniProt Q14527 56-168).
T3 sequence: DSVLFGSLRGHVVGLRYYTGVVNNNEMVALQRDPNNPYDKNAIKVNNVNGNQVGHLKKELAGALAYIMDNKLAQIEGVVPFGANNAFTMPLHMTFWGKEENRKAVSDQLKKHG
Description: competition; 0-1 uM competitor against Cy5 fork; competes better than ssDNA; Competition: 20 mM HEPES pH 7.5, 150 mM NaCl, 1 mM DTT, 0.1 ug/mL BSA, 0.2% NP40, 10% glycerol, room temperature 15 min; 6% native PAGE 0.5x Tris-borate without EDTA at 4 C; direct gel shift as in cited earlier work. As to conditions: protein: recombinant; tags: GST-FLAG; label: 5' fluorescein on strand 4 (O3063); fork 1:4 2:3 3:4; two 30 bp daughter arms, 45 bp parental duplex, no ss region.

The target in data set [3] is T2, HLTF HIRAN domain WT. Description: EMSA; high affinity; Competition: 20 mM HEPES pH 7.5, 150 mM NaCl, 1 mM DTT, 0.1 ug/mL BSA, 0.2% NP40, 10% glycerol, room temperature 15 min; 6% native PAGE 0.5x Tris-borate without EDTA at 4 C; direct gel shift as in cited earlier work. As to conditions: protein: recombinant; tags: FLAG (GST-FLAG cleaved by PreScission) or GST-FLAG; label: 5' 32P; fork 1:4 2:3 3:4; two 30 bp daughter arms, 45 bp parental duplex, no ss region.

Setting [4] is: 30 bp duplex, 5' overhang 45 nt on strand 2.

B1: ds75-mer O1058/O1118 (dsDNA)
DNA 1: AGCTACCATGCCTGCCTCAAGAATTCGTAATATGCCTACACTGGAGTACCGGAGCATCGTCGTGACTGGGAAAAC
DNA 2: GTTTTCCCAGTCACGACGATGCTCCGGTACTCCAGTGTAGGCATATTACGAATTCTTGAGGCAGGCATGGTAGCT
On to B1, for which the binding result (in data set [1] (blunt); with HLTF HIRAN domain WT [2] (blunt)) was “no binding” in each case.

B2: replication fork O1054/O1056/O1058/O3063 (structured_DNA)
DNA 1: AGCTACCATGCCTGCCTCAAGAATTCGTAA
DNA 2: TTACGAATTCTTGAGGCAGGCATGGTAGCT
DNA 3: AGCTACCATGCCTGCCTCAAGAATTCGTAATATGCCTACACTGGAGTACCGGAGCATCGTCGTGACTGGGAAAAC
DNA 4: GTTTTCCCAGTCACGACGATGCTCCGGTACTCCAGTGTAGGCATATTACGAATTCTTGAGGCAGGCATGGTAGCT
Turning to B2, the binding result with GST-FLAG-HIRAN (WT) was “binds”.

B3: replication fork O1054/O1056/O1058/O1118 (structured_DNA)
DNA 1: AGCTACCATGCCTGCCTCAAGAATTCGTAA
DNA 2: TTACGAATTCTTGAGGCAGGCATGGTAGCT
DNA 3: AGCTACCATGCCTGCCTCAAGAATTCGTAATATGCCTACACTGGAGTACCGGAGCATCGTCGTGACTGGGAAAAC
DNA 4: GTTTTCCCAGTCACGACGATGCTCCGGTACTCCAGTGTAGGCATATTACGAATTCTTGAGGCAGGCATGGTAGCT
Consider B3, for which the binding result is reported as “no binding” in data set [1] (fork 1:4 2:3 3:4, two 30 bp daughter arms, 45 bp parental duplex, no ss region) and “binds” with HLTF HIRAN domain WT [3].

B4: partial duplex O1054/O1118 (mixed)
DNA 1: AGCTACCATGCCTGCCTCAAGAATTCGTAA
DNA 2: GTTTTCCCAGTCACGACGATGCTCCGGTACTCCAGTGTAGGCATATTACGAATTCTTGAGGCAGGCATGGTAGCT
On to B4, for which the binding result is recorded as “no binding” in data set [1] (setting [4]) and “binds” in the data set with HLTF HIRAN domain WT [2] (setting [4]).
